Assay: yeast display, Sf9 membrane polyspecificity reagent, FACS + sequencing; frameworks hold sequencing errors
How it was run: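 Galactose-induced (36–48 hours) yeast carrying a synthetic nanobody display library were exposed to 10% biotinylated, detergent-solubilized Sf9 membrane reagent at 4 °C for 1 hour. FACS followed streptavidin microbead enrichment, using low and high (top ~1%) gates for expression (anti-HA) and reagent binding (streptavidin). Colony PCR, MiSeq 2 × 250 sequencing and CDR-length filtering followed. Labels for polyreactivity reflect the gate of origin.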

Sequence | polyreactivity (PSR sort gate)
QVQLVESGGGLVQAGGSLRLSCAASGFTFPYYAMGWYRQAPGKERELVAGISWDGDSTYYADSVKGRFTISRDNAKNTVYLQMNSLKPEDTAVYYCAAGYITYYYGEYGYWGQGTQVTVSS | low polyreactivity
QVQLVESGGGLVQAGGSLRLSCAASGFILSPNTMGWYRQAPGKERALVAAISSDVSTYADSVKGRFTISRDNAKNTVYLQMNSLKPEDTAVYYCNADAFGYASYEYWGQGTQVTVSS | low polyreactivity
QVQLVESGGGLVQAGGSLRLSCAASGSIFNRYAMGWYRQAPRKERELVAAITAGGSSTYYADSVKGRFTISRDNAKNTVYLQMNSLKPEDTAVYYCNAVWWHPKDYDYWGQGTQVTVSS | low polyreactivity
QVQLVESGGGLVQAGRSLRLICAASGLILFYNAMGWYRQPPGKERELVAVITSGGRTYYADSVKGRFTISRDNAKNTVYLQMNSLKPEDTAVYFCAATYGHPTSYGDGWRYGYWGQGTQVTVSS | low polyreactivity
QVQLVESGGCLVQAGGSLRLSCAASGSIFSRYDMGWYRQAPGKEREFVPRITQRGGSTYYADSVKGRFTISRDNAKNTVYLQMNTVKPEDTAVYYCYADHYRRQLAEDYWGQGTQVTVSS | low polyreactivity
QDQLVESGGGLVQAGGSLRLSCAASGSIFTHNAMGWYRQAPGKERELVAAISSGGSTNYADSVKGRFTFSRDNAKNTVYLQMNSLKPEDTAVYYCAKSIDGWYWRRRRYDYWGQGTQVTVSS | low polyreactivity
QVQLVESGGGLVQAGGSLRLSCAASGRIFTRYAMGWYREAPGKERELVAAIRIGDSTNYADSVKGRFTISRDNAKNTVYLQMNSLKPEDTAVYDCAAYLPRRRYYYWGQGTQVTVSS | high polyreactivity
QVQLVESGGGLVQAGGSLRLSCDASGLIFYSNAMGWYRQAPGKERELVAAISSSGGSTYYADCVKGRFTISRDNAKNTVYLQMNSLKPEDTAVYFCAAAGDDYWGQGTQVTVSS | low polyreactivity
QVQLVESGGGLVQAGGSLRLSCAASGLTFASNAMGWYRQAPGKERELVAAISWSDGSTYYADSVKGRFTISRDNAKNTVYLQMNSLKPEDTAVYYCAAEPPGFRTSRVGYWGQGTQVTVSS | low polyreactivity
QVQLVESGGGLVQAGGSLRLSCAASGRTFYYNGMGWYRQAPGKERELVAAITSGGTTSYADSVKGRFTISRDNAKNTVYLQRNSLKPEDTAVYYCNADYWAVNYDYWGQATQVTVSS | low polyreactivity
QVQLVESGGGLVQAGGSLRLSCAASGLTFYYNAMGWYRQAPGKERELVAVIRGSGGSTYYADSVKGRFTISRDNAKNTVYLQMNSLKPEDTAVYYCAARVAASRRYYYWGQGTQVTVSS | high polyreactivity
QVQLVESGGGLVQAGGSLRLSCAASGSIFEYYAMGWYREAPGKERELVAAITSSGASTYYADSVKGHFTISRDNAKNSVYLQMNSLKPEDTAVYYCAKEVIRYSQYIFDYWGQGTQVTVSS | low polyreactivity
QVQLVESGGGLVQAGGSLRLSCAASGSTFHLYAMGWYRQAPGKEREFVAAIRGRGGNTYADSVKGRFTISRDNAKNTVYLQMNSLKPEDTAFYYCAAPLLRDLRSPYSYNYWGQGTQVTVSS | low polyreactivity
QVQLVESGGGLVQAGGSLRLSCAASGNTFVTKAMGWYRQAPGKERELVAAINSSGGSTYYADSVKGRFTISRDNAKNTVYLQMNSLKPEDTAVYYCAADPLGITSGYGYWGQGTQVTVSS | low polyreactivity
QVQLVESGGGLVQAGGSLRLSCAASGSIFAWYAMGWYRQAPGKERELVADITQSGGSTYYADSVKGRFTISRDNAKNTVYLQMNSLKPEDTAVYYCVDYWYNYLQSGWEDDYWGQGTQVTVSS | low polyreactivity
QVQLVESGGGLVQAGGSLRLSCSASGITFKLNSMGWYRQAPGKERELVAAITSTGGSTYYADSVKGRFTISRDNAKNTVYLQMNSLKPEDTAVYYCATDILIDGFYSDYWGQGTQVTVSS | high polyreactivity
QVQLVESGGGLVQAGGSLRLSCAASGRTFPPNSMAWYRQAPGKERELVAGITRGGNTYYADSVKGRFTISRDNAKNTVYLQMNSLKPEDTAVYYCAAERRYYSWYWYRVNYCGQGTQVTVSS | high polyreactivity
QVQLVESGGGLVQAGGSLRLSSSASGRIFVYYAMGWYRQAPGKERELVAAITYSVDSTYYADSVKARFTISRDNAKNTVYLQMNSLKPEDTAVYYCATDVDWAYGYQYEYWGQGTQVTVSS | low polyreactivity
QVQLVESGGGLVQAGVSLRLSCAASGFIFYRYAMGWYRQAPRKERELVAAISWGGGSTTYYADSVKGRFTISRYNAKNTVYLQMNSLKPEDTAVYYCAKLRYPYLFWDDSEYWGQGTQVTVSS | low polyreactivity
QVQLVESGGGLLQAGGSLRLSCAASGFIFYDYAMGWYRQAPGKERELVAAITKPGGSTYYADSEKGRFTISRDNAKNTVYLQMNSLKPEDTAGYYCAADVMYYHKLTYGYDYWGQGTQVTVSS | high polyreactivity
QVQLVESGGGLVQAGGSLRLSCAASGSTFGPYAMGWYRQAPGQERELVATITRNGGSTYYADSVKGRFTISRDNAKNTVYLQMNSLKPEDTAVYYCAARLYYEIYDYGAVRIGYDYWGQGTQVTVSS | low polyreactivity

Sequence | polyreactivity (PSR sort gate)
QVQLVESGGCLVQAGGSLRLSCAASGNTIIRYAMGWYRQAPGKERELVAAISYSGGRTYYADSVKGRFTISRDNAKNTVYLQMNSLKPVDNAVYYCNAASRYGGDYWGQGTQVTVSS | high polyreactivity
QVQLVESGGGLVQAGGSLRLSCAASGSIFAINAMGWDRQAPGKERELVAAITRGGSTYADSVKGRFTISRDNAKNTVYLQINSLKPEDTAVYYCAARWYRRGNGFNYWGQCTQVTVSS | high polyreactivity
QDQLVESGGGLVQAGGSLRLSCAASGSTVYFNAMGWYRPAPGKERELVASITSGGSTNYADSVKGRFTISRDNAKNTVYLQMNCLKPEDTAVYYCAAGLYLQGPLDYWGQGTQVTVSS | low polyreactivity
QDQLVESVGGLVQAGVSLRLSSASSGRTFWAYAMGWYRQAHGKERELVAAISRNGGSTYYADSVKGRFTISRDHAKNTVYLQMNSLKPEDTAVYYCAAESRYYYELGYWGQGTQVTVSS | high polyreactivity
QVQLVESGGGLVQAGGSHRLSCAASGSTIAGNAMGWYRQAPGKERELVAVITRGGSTNYADSVKGRFTISRDNAKNTVYLQLNSLKPEDTAVYYCARYRFLLDYWGGGYYWGQGTQVTVSS | high polyreactivity
QVQLVESGGGLVQAGCSLRLSCAASGGTFYANAKGRYRQAPGIVRELVAAITSGGSTNYADSVKGRFTISRDNAKNTVYLEINSLKPEDTAVYYCNASAQRRYWHSYFRRYDYWGQGTQVTVSS | low polyreactivity
QVQLVESGGGLVQAGGSLRLSCAASGSIFFSYVMGWYRQAPGKERELVADITYSGGSTFYADSVKGRFTISRDNAKNTVYLQMNSLKPEDTAVYYCAATWYSWGSEFDYWGQGTQVTVSS | high polyreactivity
QVQLVESGGGLVQAGGSLRLSFDASGFISGDNTMGWYRQAPGKERELVAAINSGGSTYYADSVKGRFTISRDNAKNTFYLQMNSLKPEDTAVYYCAADYSTWLRAYDFWGQGTQVTVSS | low polyreactivity
QVQLVESGGGLVQAGGSLRLSCAASGRTFYQYAMGWYRPAPGKERELVAAITTSGGSTYYADSVKGRFTNSRDNAKNTVYLQMNSLKPEDTAVYYCAAPYTGYRERGSYKSDYWGQGTQVTESS | low polyreactivity
QFQLVESGGGLVQAGGSLRLSCAASGFIFKPYTMGWYRQAPGKERELVATITFSGGSTYYADSVKGRFTISLDNAQNTVYLQMNSLNPEDTAVYYCADPRYYRGYSIFDYLGQGTQVTVSS | low polyreactivity
QVQLVESGGGLVQAGRSLRLSCAASGITFKLYAMGWYRQAPGKERELVARLSLRGGNTYYADSVKVRFTISRDNAKTTVYLQMNSQNPEDTAVYYCNADLYRQYASRYHYWGQGSQVTVSS | high polyreactivity
QVQLVESGGGLVQAGGSLRLSCAASGFTFYQYAMGWYRQAPGKEREFVAAISSSGSSTYYADSVKGRFTISRDNAKNTVYLQMNSLKPEDTAVYYCNAYFRNWRYSPGGYWGQGTQVTVSS | high polyreactivity
QVQLVESGGGLVQAGGSLRLSCAASGFIFAPNAMGWYRQAPGKERELVAAISQSGASTFYADSVKGRFTISRDNAKNTVYFQMNSLKPEDTAVYYCAAPPYYSYDYWGQGTQVTVSS | low polyreactivity
QVQLVESGGGLVQAGGSLRLSCAASGRIFGRNAMGWYRQAPGKEREFVAAITSSGGNTYYADSVKGRFTISRDNAKNTVYLQMNSLKPEDTAVYYCAARGARYCTSDYWGQGTQVTVSS | high polyreactivity
QVQLVESGGGLVQAGGSLRLSCAASGSIAHYAMGWYRQAPGKERELVAAINWSGGSTNYADSVKGRFTISRDNAKNTVYLQMNSLKPEDTAVYYCNAAGGYKPYLQDVASRYDYWGQGTQVTVSS | high polyreactivity
QVQLVESGGGLVHAGGSLRLSCAASGFTFGNAMGWYRQAPGKERELVAAITVNGGTTNYADSVKGRFTISRDNAKNTVYLQMNSLKPEDTAVYSCNVDTSYGPAGDYWGQGTQVTVSS | low polyreactivity
QVQLVESGGGLVQAGGSLRLSCAASGSTFPSYAMGWYRQAPGKERELVAAISRSGGSTYYADSVKGRFTISRDNAKNTVYLQMNSLKPEDTAVYYCAARGHLRYESDYWGQGTQVTVSS | high polyreactivity
QVQLVESGGGLVQAGGSLRLSCAASGRIFRSYAMGWYRQAPGKERELVAAMTWGGGRTYYADSVKGRFTISRDNAKNTVYLQMNSLKPEDTAVYYCNTLAYPYYRGSKYDYWGQGTQVTVSS | high polyreactivity
QVHLVESGGGLVQAGGSLRLSCAASGRTFSWNALGWYRQAPGKQRELVAVISRGDSTNYADSVKGRFTISRDNEKNTVYLQMNSLKPVDNAVYYCAADGYPPGYGYWGQGTQVTVSS | low polyreactivity
QDQLVESGGGLVQAGGSLRLSCAASGSILIHNAMGWSRQAPGKERELVAAITSGGSTNYADSVKGRFTISRDNAKNTVYLQMNSLKPEDTAVYYCATAVGRVLVGYDYWGQGTQVTLSS | low polyreactivity

From the nanobody polyreactivity screen of Harvey et al. (2022)
